Experimental data published in publication PMC9917220.

Legend:
[1] = target: T1, human thrombin (Homo sapiens, UniProt P00734;P00734 328-363;364-622); test: ITC; 25 C, binding buffer, 1 mM Mg2+; Binding Buffer: 50 mM Tris-HCl, 100 mM NaCl, 1 mM MgCl2, 1 M DTT (so in the source), pH not stated; ITC and CD at 25 C
[2] = target: T1, human thrombin; test: CD; 0.5 uM thrombin, 5 uM DNA; no significant spectral change; Binding Buffer: 50 mM Tris-HCl, 100 mM NaCl, 1 mM MgCl2, 1 M DTT (so in the source), pH not stated; ITC and CD at 25 C

| Binder | Kd [1] | binding result [2] |
| --- | --- | --- |
| AS2-3 (61mer; identical to AS7-36 and AS7-83) (structured_DNA) DNA: TACAGGCAGTAAGGCCGTGTCATCAGGATGGGCACTTTCCTAGGGCAGGTTAGCAACAGGA | 3.36 µM | – |
| TACAGGCAGTAAGGCCGTGTCATCAGGATGGGCACTTTCC (structured_DNA) [40mer AS2-3] | – | no binding |
